Measurements taken from US10597674B2, “HPPD variants and methods of use” (BASF Agricultural Solutions Seed, US LLC, priority 2015, dated 2020).
Positions count from the first letter of the chain named. In names and notes the source's numbering stands.

Assays:
[1] = system: transgenic T1 soybean events; assay: Field trials of T1 soybean events, leaf damage eight days after application; type: in vivo
Description: Soybean plants expressing an HPPD inhibitor tolerant polypeptide of the present invention alone, or along with a gene conferring tolerance to glyphosate and/or a gene conferring tolerance to glufosinate or having a “plant expression cassette”, which includes only an HPPD inhibitor tolerant polypeptide of the present invention, were tested for tolerance to different HPPD inhibitor herbicide chemical classes. The transgenic plants were routinely analyzed for the expression and presence of the transgenes using the ELISA protein detection method (see detailed description under item D and H). Only plants recovering in the selection media and having a detectable HPPD transgene protein expression were regenerated, transferred to the greenhouse and used at V2-V4 growth stage for the HPPD inhibitor herbicide tolerance analysis of the T0 soybean events in the greenhouse (Example 6). The chemical formulation with HPPD inhibitor herbicides was supplemented with ammonium sulfate and methyl ester rapeseed oil. Herbicide tolerance evaluation was taken 5-21 days after spraying. The best performing independent T0 soybean events were selfed to produce T1 soybean seeds. In the field trails, the advanced T1 soybean seeds were planted and treated with either 210 g/ha of isoxaflutole or 150 g/ha of Cmpd.
In Table 10, the frequency of the soybean events showing a good tolerance, i.e. equal or less than 15% damage of the total leaf area are summarized

[2] = system: E. coli cells expressing an HPPD polypeptide; assay: Brown color bioassay in liquid culture, residual brown color formation (BCF), OD440 after 96 hours; type: cell-based; conditions: Cmpd. 1 1000 μM, 96 hours
Method in brief: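 E. coli expressing HPPD variants were grown at 30 degrees Celsius from OD600 0.3-0.5 in LB with 5 mM HPP, with or without herbicide (e.g. Cmpd. 1, 1000 μM). After 96 hours, supernatant OD440 was measured; residual brown colour formation compares pigment with and without inhibitor.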

[3] = system: E. coli cells expressing an HPPD polypeptide; assay: Brown Color Assay on solid LB-agar, visual score of brown pigment; type: cell-based; design: key to brown pigment formation: +++: a dark brown coloring as seen for E. coli cells expressing one of the respective mutant HPPD polypeptide without inhibitor; ++: medium brown pigmentation; +: light brown pigmentation; 0: no brown pigmentation development was detected on the LB agar plates; conditions: for brown coloring compared with SEQ ID NO: 2, in words: 25, 50, 100, 250 and 500 μM Cmpd. 1
Description: Mutant HPPD polypeptides were analyzed using a brown color assay (WO2014/043435). Bacterial cells expressing the mutant HPPD polypeptide according to the invention were assayed in 96 well format for HPPD inhibitor tolerance by spotting on solid media containing LB-agar, selection agent for the expression vector pSE420(RI)NX (WO2014/043435), 5 mM tyrosine (Sigma-Aldrich, St. Louis, USA), 42 mM succinate (Sigma-Aldrich, St. Louis, USA) and six different concentrations of the HPPD inhibitor herbicide Cmpd. 1 (0-500 μM). In the brown color assay, an overnight culture of the E. coli cells expressing one of the respective mutant HPPD polypeptides were diluted to an OD600 of 1 and 10 μl extract was spotted in triplicates on plates containing 0, 25, 50, 100, 250, or 500 μM of Cmpd. 1. Plates were covered with airpore tape and incubated at 30 degrees C. After 24 hours, the cells were kept in darkness at room temperature and after 7 days the brown pigment formation was scored visually. In the presence of an HPPD inhibitor herbicide, this pigment formation is inhibited and the color of the agar plate will not alter, unless an HPPD inhibitor herbicide tolerant HPPD polypeptide is expressed and active. […] The “++” and “+” scores a medium and light brown pigmentation, respectively, and the “0” means that no brown pigmentation development was detected on the LB agar plates.

[4] = system: HPPD polypeptides (wild-type SEQ ID NO:1 and mutants); conditions: different HPPD inhibitor herbicide chemical classes
[5] = system: transgenic soybean T0 events; assay: Greenhouse spray test of T0 soybean events, herbicide tolerance rating 0-3; type: in vivo; conditions: Cmpd. 1 300 g AI/ha, five days
Description: Tolerant green shoots were transferred to rooting media or grafted. Rooted plantlets were transferred to the greenhouse after an acclimation period. Plants containing the transgene were then sprayed with HPPD inhibitor herbicides, as for example with mesotrione at a rate of 300-600 g AI/ha, or with Cmpd. […] Five to ten days after the application, the symptoms due to the application of the herbicide were evaluated and compared to the symptoms observed on wild-type plants under the same conditions.
For example, T0 soybean plants having a “plant expression cassette”, which includes an HPPD inhibitor tolerant HPPD polypeptide of the present invention, were tested towards the tolerance of Cmpd. 1.
Prior greenhouse trials with the transgenic plants, soybean transformants were routinely analyzed for the expression and presence of the transgenes using the ELISA protein detection method (see detailed description under item D and H). Only plants recovering in the selection media and having a detectable HPPD transgene protein expression were used for the herbicide tolerance analysis. A DeVries Tracker Sprayer was calibrated prior to each spraying. The chemical formulation used for Cmpd. 1 was supplemented with ammonium sulfate and methylated rape seed oil. Spray tests were conducted with a concentration, which equals to 300 grams AI per hectare (300 g AI/ha). Tolerance was evaluated 5 days after spraying. […] A rating of “3” was assigned to plants showing good tolerance, i.e. less than 10% of the leaf area from the top three trifoliate leaves showing chlorosis or only very slight bleaching.

[6] = system: transgenic soybean T0 events; assay: Additional greenhouse trials of T0 soybean events, leaf damage score 0-100 as percentiles; type: in vivo; conditions: Cmpd. 1 300 g AI/ha, five days
Method in brief: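 Independent T0 events (21 to 94 per construct, single cassette insertion) expressing mutant HPPD were sprayed with HPPD inhibitor herbicide in the greenhouse. Leaf damage scored 5 days after application from 0 (no damage) to 100 (complete bleaching). Scores reported as percentile distributions (25th, median, 75th) per construct.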

[7] = 25 μM Cmpd. 1, scored after 7 days
[8] = 50 μM Cmpd. 1, scored after 7 days
[9] = 100 μM Cmpd. 1, scored after 7 days
[10] = 250 μM Cmpd. 1, scored after 7 days
[11] = 500 μM Cmpd. 1, scored after 7 days
[12] = 150 g/ha Cmpd. 1, stage V2-V4, eight days after application
[13] = 210 g/ha isoxaflutole, stage V2-V4, eight days after application

Molecule: CS(=O)(=O)c1cc(C(F)(F)F)ccc1C(=O)c1cnoc1C1CC1 [isoxaflutole, (5-cyclopropyl-4-isoxazolyl)[2-(methylsulfonyl)-4-(trifluoromethyl)phenyl]methanone, reference compound]
- leaf damage ([1]; wild-type or segregated T1 soybean plants without tolerant polypeptide, 210 g/ha isoxaflutole or 150 g/ha Cmpd. 1, eight days): 100%

B1: SEQ ID NO:1 (protein, listed as Pseudomonas fluorescens)
chain: MADLYENPMGLMGFEFIEFASPTPGTLEPIFEIMGFTKVATHRSKNVHLYRQGEINLILNNEPNSIASYFAAEHGPSVCGMAFRVKDSQKAYNRALELGAQPIHIDTGPMELNLPAIKGIGGAPLYLIDRFGEGSSIYDIDFVYLEGVERNPVGAGLKVIDHLTHNVYRGRMVYWANFYEKLFNFREARYFDIKGEYTGLTSKAMSAPDGMIRIPLNEESSKGAGQIEEFLMQFNGEGIQHVAFLTDDLVKTWDALKKIGMRFMTAPPDTYYEMLEGRLPDHGEPVDQLQARGILLDGSSVEGDKRLLLQIFSETLMGPVFFEFIQRKGDDGFGEGNFKALFESIERDQVRRGVLTAD
modifications: 4-hydroxyphenylpyruvate dioxygenase (HPPD; Pseudomonas fluorescens) (1)..(358)
- brown pigmentation in the presence of the HPPD inhibitor, in words [2]: did not produce a substantial brown pigmentation
- brown pigmentation, in words ([3]; 25 μM Cmpd. 1): do not produce any brown pigmentation
- character of inhibition by HPPD inhibitor herbicides (time-course) [4]: slow and tight binding inhibitor

B2: 96 (protein)
chain: B1 chain with R213K, P268G, T270E, E335P, G336H, N337S, A340V, I345V
modifications: mutant HPPD polypeptide
- brown coloring compared with SEQ ID NO: 2, in words [3]: stronger brown coloring

B3: 32 (protein)
chain: B1 chain with P268R, T270E, E335P, G336H, N337S, A340V, I345V
modifications: mutant HPPD polypeptide
- brown coloring compared with SEQ ID NO: 2, in words [3]: stronger brown coloring

B4: SEQ ID NO:2 (protein)
chain: B1 chain with E335P, G336W, K339A, A340Q
modifications: mutant HPPD polypeptide
- proportion of T0 soybean events with less than 10% leaf damage [5]: 54%
- Percentage events rated “2 & 3” ([5]; less than 50% leaf damage): 83%

B5: SEQ ID NO:104 (protein)
chain: B1 chain with R213K, M264L, P268G, T270E, E335P, G336H, N337S, A340V, S344Q, I345M
modifications: mutant HPPD polypeptide
- brown coloring compared with SEQ ID NO: 2, in words [3]: stronger brown coloring

B6: SEQ ID NO: 1: reference wild-type Pseudomonas fluorescens HPPD polypeptide (protein, listed as Pseudomonas fluorescens)
chain: B1 chain
modifications: 4-hydroxyphenylpyruvate dioxygenase (HPPD; Pseudomonas fluorescens) (1)..(358)
- brown pigment formation [3, 7]: 0
- brown pigment formation [3, 8]: 0
- brown pigment formation [3, 9]: 0
- brown pigment formation [3, 10]: 0
- brown pigment formation [3, 11]: 0

B7: SEQ ID NO: 16: mutant HPPD polypeptide: P268S T270S E335P G336D N337S A340V I345K (protein)
chain: B1 chain with P268S, T270S, E335P, G336D, N337S, A340V, I345K
modifications: mutant HPPD polypeptide
notes: mutant HPPD polypeptide: P268S T270S E335P G336D N337S A340V I345K
- Frequency in the population (events with ≤15% leaf damage) [1, 12]: 95%
- Independent events with ≤15% leaf damage after spray [1, 12]: 19
- Frequency in the population (events with ≤15% leaf damage) [1, 13]: 95%
- Independent events with ≤15% leaf damage after spray [1, 13]: 19

B8: SEQ ID NO: 104: mutant HPPD polypeptide: R213K M264L P268G T270E E335P G336H N337S A340V S344Q I345M (protein)
chain: B1 chain with R213K, M264L, P268G, T270E, E335P, G336H, N337S, A340V, S344Q, I345M
modifications: mutant HPPD polypeptide
notes: mutant HPPD polypeptide: R213K M264L P268G T270E E335P G336H N337S A340V S344Q I345M
- brown pigment formation [3, 7]: +++
- brown pigment formation [3, 8]: +++
- brown pigment formation [3, 9]: +++
- brown pigment formation [3, 10]: ++
- brown pigment formation [3, 11]: ++
- leaf damage score, Interquartile range ([6]; 75th minus 25th percentile): 15.0
- leaf damage score, 25th percentile ([6]; scale 0 (no damage) to 100 (complete bleaching)): 5.0
- leaf damage score, 75th percentile ([6]; scale 0-100): 20.0
- leaf damage score, 90th percentile ([6]; scale 0-100): 72.5
- leaf damage score, Median ([6]; scale 0-100): 15.0

B9: SEQ ID NO: 103 (protein)
chain: MADLYENPMGLMGFEFIEFASPTPGTLEPIFEIMGFTKVATHRSKNVHLYRQGEINLILNNEPNSIASYFAAEHGPSVCGMAFRVKDSQKAYNRALELGAQPIHIDTGPMELNLPAIKGIGGAPLYLIDRFGEGSSIYDIDFVYLEGVERNPVGAGLKVIDHLTHNVYRGRMVYWANFYEKLFNFREARYFDIKGEYTGLTSKAMSAPDGMIKIPLNEESSKGAGQIEEFLMQFNGEGIQHVAFLTDDLVKTWDALKKIGMRFLTAPGDEYYEMLEGRLPDHGEPVDQLQARGILLDGSSVEGDKRLLLQIFSERLMGPVFFEFIQRKGDDGFGPHSFKVLFEQMERDQVRRGVLTAD
modifications: mutant HPPD polypeptide
- brown pigment formation [3, 7]: ++
- brown pigment formation [3, 8]: ++
- brown pigment formation [3, 9]: ++
- brown pigment formation [3, 10]: +
- brown pigment formation [3, 11]: 0
